Source: patent publication US20060073149A1

Legend:
Soluble Aβ 1-40 = Soluble Aβ 1-40 (UniProt P05067); experiment: SPR (BIAcore 2000), antibody captured on anti-Ig, soluble Aβ in flow
Soluble Aβ 1-42 = Soluble Aβ 1-42 (UniProt P05067); experiment: as above

Row | Substance | Kd (Soluble Aβ 1-40) | Kd (Soluble Aβ 1-42)
1 | Murine anti-Aβ antibody 266 | 0.004 nM | 0.004 nM
2 | anti-Aβ murine antibody 4G8 | 23 nM | 24 nM
3 | anti-Aβ murine antibody 21F12 |  | 4.4 nM
